Assay results: the DeepSol protein solubility set

Assay: soluble on expression in E. coli; label from the status in PepcDB or PDB records

| Sequence | soluble on expression in E. coli |
| --- | --- |
| MGSDKIHHHHHHMLCSGYLGHDMEDDCDIIIIGAGIAGTACALRCARAGLSVLLLERAEIPGSKNLSGGRLYTHALAELLPQFHLTAPLERRITHESLSLLTPDGVTTFSSLQPGGESWSVLRARFDPWLVAEAEKEGVECIPGATVDALYEENGRVCGVICGDDILRARYVVLAEGANSVLAERHGLVTRPAGEAMALGIKEVLSLETSAIEERFHLENNEGAALLFSGRICDDLPGGAFLYTNQQTLSLGIVCPLSSLTQSRVPASELLTRFKAHPAVRPLIKNTESLEYGAHLVPEGGLHSMPVQYAGNGWLLVGDALRSCVNTGISVRGMDMALTGAQAAAQTLISACQHREPQNLFPLYHHNVERSLLWDVLQRYQHVPALLQRPGWYRTWPALMQDISRDLWDQGDKPVPPLRQLFWHHLRRHGLWHLAGDVIRSLRCL | not soluble |
| QAAELEITVTNATKGIYFTPLIVAAHDSDLHMFKVGESATAELEAMAEGGDISGLSTVIGNAGGAVVENPAGGILNPGAATTFTLDSGDHG | not soluble |
| SNAMIIADNIKQFHSIRNSLIKQQKIGFVPTMGALHNGHISLIKKAKSENDVVIVSIFVNPTQFNNPNDYQTYPNQLQQDIQILASLDVDVLFNPSEKDIYPDGNLLRIEPKLEIANILEGKSRPGHFSGMLTVVLKLLQITKPNNLYLGEKDYQQVMLIKQLVKDFFINTKIIVCPTQRQPSGLPLSSRNKNLTSTDIEIANKIYEILRQDDFSNLEELTNKINSTGAKLQYIQKLNNRIFLAFYIGKVRLIDNFLKETGPSC | soluble |
| VTDHVREADDANIDDLLGDLGGTARAERAKLVEWLLEQGITPDEIRATNPPLLLATRHLVGDDGTYVSAREISENYGVDLELLQRVQRAVGLARVDDPDAVVHMRADGEAAARAQRFVELGLNPDQVVLVVRVLAEGLSHAAEAMRYTALEAIMRPGATELDIAKGSQALVSQIVPLLGPMIQDMLFMQLRHMMETEAVNAGERAAGKPLPGARQVTVAFADLVGFTQLGEVVSAEELGHLAGRLAGLARDLTAPPVWFIKTIGDAVMLVCPDPAPLLDTVLKLVEVVDTDNNFPRLRAGVASGMAVSRAGDWFGSPVNVASRVTGVARPGAVLVADSVREALGDAPEADGFQWSFAGPRRLRGIRGDVRLFRVRRGATRTGSGGAAQDDDLAGSSP | soluble |
| GVACKPKEKPSSATSLTDDALMDTVQRRTFNYFWDAAEPNSGLARERYHMDGEYPAGGPEIVTSGGSGFGIMAILAGIDRGYVSREEGLRRMEKIVGFLEKADRFKGAYPHWWNGETGHVQPFGQKDNGGDLVETAFLMQGLLAVHQYYAEGSAEEKKLAGRIDKLWREVDWNWYRHGGQNVLYWHWSPEYGWEMNFPVHGYNECLIMYILAAASPTHGVPAAVYHEGWAQNGAIVSPHKVEGIELHLRYQGGEAGPLFWAQYSFLGLDPVGLKDEYCPSYFNEMRNLTLVNREYCIRNPKHYKGYGPDCWGLTASYSVDGYAAHGPLERDDRGVISPTAALSSIVYTPDQSLQVMHHLYEMGDKVFGPYGFYDAFSETADWYPKRYLAIDQGPIAVMIENYRTGLLWKLFMSHPDVQNGLKKLGFNVKK | soluble |
| MDIRLEDEQIKVGDTLLPGVYEGMEVTGDVRSDEEELQSGKRVVHYSYNPTTIRLNLKLLNDADGTPEEKLATIQKVFRPPSQTKPPTYKLVSSHAKARGIGQVMFIRFRSQDTNASDIITVSLEFQETESTTVSVQKVKANTGSGQQYTVKKGDTLWALAKKFNTTVEAIAKANNIANVNLIYVGQKLTIPAASGNASSVASSSAAVDDAEAPKVR | not soluble |
| MTVKVCVCGGGNGAHTLSGLAASRDGVEVRVLTLFADEAERWTKALGADELTVIVNEKDGTQTEVKSRPKVITKDPEIAISGADVVILTVPAFAHEGYFQAMAPYVQDSALIVGLPSQAGFEFQCRDILGDKAAAVSMMSFETLPWACRIKEFGRKVEVLGTKSVLAASLIKGTAKTVDPLSTLQMLHGAEPVFRLAKHFLEMLIMSYSFVHPAILFGRWGSWDGKPVPEAPLFYQGIDQATADMLTACSNECKDVANAIMAACPGNDLSDVKDIYQWYLEYYHEDIQDDHDLYHAITTNKSYKGLVHPVKAVDGGVAPDFGNRYLTEDIPMGMIVFKGVAIAAGVAIPSNDKLIMWAQEKIGKEYLVDGALTGKDVATTRCPQRYGFNTLDAILTGKKHHHHH | soluble |
| MRGNKGGERSRTFTVQARIVGRWQHPCSPRPEGRVHPQLPPHAAATRLACVRLYKHCGICGTPTHAVSHRNDTHDGDSAPTRCPRAEMPLSKKSSSLRQAIPCSVLFAADPLQVPSNACVGNRLSTVRRQHQFSASRHTKHAPSVAEDGNGIPRPPPVSVGAGVVDNANEPFAEYARLSTSLASRAHVEPFSSAPMSSFASCPYVAASSHGSTTMSKALRRLPTTVTALPGMAPPPPTISAAVPRNGHRTAGRTSAPLRVHLVHRTRSPPGLAHSPPAYSSTVTTSMPHEIPPTSALVLPYCTDAQLRNLFATLFVRTGDATWSVHQHILPFLTVRQHCNLSAAPSQVTAFFGLTSHSDEDVHEKGATGAAGHQGEQAFFGGPWATKEMNRVASQLCYSFVYVGILGCGEEMCWDTLPMPLGGIPALARRSPVRNAYNTGSTSASQSPVTRSSSSSAHPATPEKQCLCPTPHRSLRNSPCVSSSALGVVALMEGLKQHQPSRMVEDGGADDDEGGPKSTVLYHTDQLESSTLDVVTTSTLTSVEFRGVVEAPPLVQEVAFVRGATRSYKLSWETARGSLHT | soluble |
| MGKRVVYPGTFDPPHYGHLDIVKRSARIFDEVVVAVAKKPRKFLLFDAEERVKMFEKMVEDIPNVEVKMFDCLLVDFMKREGINVIVRGVRLFTDFEYELQIALTNYKLAGVETVFMMPSQEYIHISSTIVRDVASYCGDLDNMVHPYVKQKLREKFNCGS | soluble |
| MSLTYQFMQPYTFKNGVTLKNRMVMSPTTTMSSFYDGHVTNDEIKFYDVRAGGPGMIIGEVANVIASGKGFEGELSIADDGDIDGLSRLANAMKRGGTKAILQIFHAGRKSNDSILRGEQPVSASAVKAVFPPDSQTPRELTAAEIDEIIVAFGEATRRAIAAGFDGVELHGANTYLLQQFFSPNSNRRTDKWGGDRDARMGFAKAVIASSQQAIDTYADRPFLLGYRISPEEIETPGIRLADSLAFVDMLGDSTVDYVHTSMGSAHRTSLNDKTDHEPILKQLVQQLAGRKPLIGVGSVEKPADAEAVLEMGADLVAMGREFIREPQWVEKIVDGDEASIRYQISPSELDELAIPRAMQDYLKGAFYSVMHFTTDPSVAVDYQNEGHHHHHH | soluble |
| MAINPFFTLVQRPVQSIEMAPPKPSAKGAKKAAKTVTKPKDGKKRRHARKESYSVYIYRVLKQVHPDTGVSSKAMSIMNSFVNDVFERIAAEASRLAHYNKRSTISSREIQTAVRLILPGELAKHAVSEGTKAVTKYTSSK | not soluble |
| MLGPPSREKWSSDFPRWFDWVIETAEVYDYGRYPVKGMGVWMPYGFQIRRRVLEVVRGLLDSTGHEEVLFPLLIPEHLLRRESEHIRGFEGEVYWVTHGGREELDVKLALRPTSETSITYMETFWIKSYRQLPKKYYQVVSIFRYETKATRPMIRLREVTTFKEAHTVHESFEDAERQVLEAIEVYKAIFDRLLIPYVISKRPEWDKFAGALYTIAFDTIMPDGRALQIGTVHHLGQSFTRAFDFRIQMRDERLDHPWQTSYGVSDRVVASLIAVHGDDRGLVIPPSVAPIQVVVIPITPGDEEKRGKVLTYTAKAAEALEKAGLRVHVDDREWERPGAKFYYWEAKGVPIRVEIGLREAEQDTLTIARRDTLEKTEVPLGEAGNRIRELMAQIESSMRERAKSFFGERLLRTESLEEARDWVEGRRGIAEIPWCGRESCGLEMEERVNGKVLGTPWPEEPVEEGKRCPLCGRPAVAWIRLAKTY | soluble |
| MHHHHHHSSGVDLGTENLYFQSMGEVVMSQAIQPAHATARGELSAGQLLKWIDTTACLAAEKHAGVSCVTASVDDIQFEETARVGQVITIKAKVTRAFSTSMEISIKVMVQDMLTGIEKLVSVAFSTFVAKPVGKEKIHLKPVTLLTEQDHVEHNLAAERRKVRLQHEDTFNNLMKESSKFDDLIFDEEEGAVSTRGTSVQSIELVLPPHANHHGNTFGGQIMAWMETVATISASRLCWAHPFLKSVDMFKFRGPSTVGDRLVFTAIVNNTFQTCVEVGVRVEAFDCQEWAEGRGRHINSAFLIYNAADDKENLITFPRIQPISKDDFRRYRG | soluble |
| MGSDKIHHHHHHVPNEKLSNRDRLLAVRDIFEQYSDEEQTLTLEELSTELSKRGLIEKLSRKSLKEDIAALAKSGFDIHAEETKNGLAIPYHLVSRPFEYHHLRLLVDAIASAKFISESETEVLVRNIHTLTSKRLAKTLTPVIHTVKKPKGVIPFSIDTIQKAIIEQDIISFQYQGKFNERTRKFELRRDGDYYLVTPAHLIVDNGNYYLIGRDERVEEIRTYRVDRIVNCSVFEPAQTPVEVEATYLSSMFNMYGGEQEQLTLKFHESVMPTVVDRFGTDIRCRRLEGDWFEVKVGALFSQGFMMWLIQFAEQAEILEPALCREAFKNKVLELAKVYQAGVPVSPQMNESV | not soluble |
| MAEQRSNIMRLPPSGYRLHRFPPLAQPVAVDEEFGLDNQGWQESQVDIQQQLEAGFQQGLQQGHEEGLRQGIEQGKQQGLLDGQKEGFQKGFVSGEQAGKQGFLEAAKPVNDLFQALSRWQSEKEQQQRHMICELVQKVAQQVIRAELTLMPQQILALVDETLSAMPGKAETVTVHLNPQDLERITHINADLPKSWKLVANNELPIGGCQLVTDDAEADASCDSRLEACMDNVKQHLLDEVSIPQVESENE | not soluble |
| GMAYEQFAYVYDELMQDVPYPEWVAWVLEQVEPGKRIADIGCGTGTATLLLADHYEVTGVDLSEEMLEIAQEKAMETNRHVDFWVQDMRELELPEPVDAITILCDSLNYLQTEADVKQTFDSAARLLTDGGKLLFDVHSPYKMETLFNGKTYATHAEQSSYIWFADPGEEPLSVVHELTFFIEGEDGRYDRVDETHHQRTYPPEQYITWLREAGFRVCAVTGDFKSDAPTETAERIFFVAEKI | soluble |
| MYIECEGILKRYFKDVPEIIKRACKFAREKLGEGSHGFSHTLRVLAIALHIGSKENADLEILALAALLHDIARPLEDKGVIRDHAIEGAKIAKEFLSNYEKVEEVAHAIASHRFSNDVEPRTLEAKILSDADKIDALGAIGIARVFIYSCEKERSIEDSIKHFEEKILKLKDLMYTKTGKEIAEKRHKVVKWYVETLKSELREFLYLEHHHHHH | soluble |
| MGSDKIHHHHHHMRKIPPLRALQVFEAAARLQHFSRAAQELCITQSAVSHQVRLLEEHFALPLFRREGRSLRLTDKGEQLFQETARIFNELGELNLRLLGEKPEALRLAVYSSFAVKWLIPRLSGFRRLHPGIQVRLDMITEDPVLSHSSADMFITGQQDQKGYWQQLLHAERLIPVCSPELISSSDKLDLDWLSTQQLLTVDEGPLGLDWQRWFEHHRVAQPEEEQQQLFSHVLMAIEAAIAGQGVALASDFMVLDDIAKQRLVALPFAGIDTGFEFNFLCKQRRLQEPAIAAFVHWLTQQH | not soluble |
| MSLEAVKTIEKEKKDLEQKRIEEATEEEIKPGDHVKMEGGTSVGKVVEVKSGTALVDFGFLRLKVPVSKLRKTKKEEKKETSTFSYKPSSFRTEIDIRGMTVEEAEPVVKKFIDDLMMNGISKGYIIHGKGTGKLASGVWEILRKDKRVVSFRFGTPSEGGTGVTVVEVKEGHHHHHH | soluble |
| MVSKRTKESIRNLNIFKGLELCIHISESVSYRVSKNRTVIFIISIGYKGVTVSKGPTYQERFTFTTQKFNAKSCLNHFLYVINPTKIDDLHFSIITGTFDDPKIQMAVECLKGLRVVNLNTPILSNTKTLAELVKTFEPTEHLKIHRYPFQTLGFAQLFQLREILPGKFPILSLNINMPLNGLLLTSSSSVGVNNNRLLTSKDFNIFLKHWIAGLKPELECIRILDYRLDWNEHTVLKGIPYEVAPMETKIKFRRKEELQLGGFDFTMSSGVKATLHFHYWDRVPITEISVVLHDSEIITFL | not soluble |
